Source: patent US20190170753A1

How the values were obtained:
[1] = target: 92-133 biotin labeled HCV core peptide (hepatitis C virus) (UniProt Q9WMX2); assay: capture EIA; Ab 125 ng/mL; bt-peptide 500 ng/mL
[2] = target: C113T109N biotin labeled HCV core peptide (hepatitis C virus); assay: capture EIA; Ab 125 ng/mL; bt-peptide 500 ng/mL
[3] = target: Mut1T110N biotin labeled HCV core peptide (hepatitis C virus); assay: capture EIA; Ab 125 ng/mL; bt-peptide 500 ng/mL
[4] = target: Mut6T110S biotin labeled HCV core peptide (hepatitis C virus); assay: capture EIA; Ab 125 ng/mL; bt-peptide 500 ng/mL
[5] = target: 92-133 biotin labeled HCV core peptide (hepatitis C virus) (UniProt Q9WMX2); assay: capture EIA; Ab 250 ng/mL; bt-peptide 500 ng/mL
[6] = target: C113T109N biotin labeled HCV core peptide (hepatitis C virus); assay: capture EIA; Ab 250 ng/mL; bt-peptide 500 ng/mL
[7] = target: Mut1T110N biotin labeled HCV core peptide (hepatitis C virus); assay: capture EIA; Ab 250 ng/mL; bt-peptide 500 ng/mL
[8] = target: Mut6T110S biotin labeled HCV core peptide (hepatitis C virus); assay: capture EIA; Ab 250 ng/mL; bt-peptide 500 ng/mL
[9] = target: 92-133 biotin labeled HCV core peptide (hepatitis C virus) (UniProt Q9WMX2); assay: capture EIA; Ab 500 ng/mL; bt-peptide 500 ng/mL
[10] = target: C113T109N biotin labeled HCV core peptide (hepatitis C virus); assay: capture EIA; Ab 500 ng/mL; bt-peptide 500 ng/mL
[11] = target: Mut1T110N biotin labeled HCV core peptide (hepatitis C virus); assay: capture EIA; Ab 500 ng/mL; bt-peptide 500 ng/mL
[12] = target: Mut6T110S biotin labeled HCV core peptide (hepatitis C virus); assay: capture EIA; Ab 500 ng/mL; bt-peptide 500 ng/mL
[13] = target: 92-133 biotin labeled HCV core peptide (hepatitis C virus) (UniProt Q9WMX2); assay: capture EIA; Ab 1000 ng/mL; bt-peptide 500 ng/mL
[14] = target: C113T109N biotin labeled HCV core peptide (hepatitis C virus); assay: capture EIA; Ab 1000 ng/mL; bt-peptide 500 ng/mL
[15] = target: Mut1T110N biotin labeled HCV core peptide (hepatitis C virus); assay: capture EIA; Ab 1000 ng/mL; bt-peptide 500 ng/mL
[16] = target: Mut6T110S biotin labeled HCV core peptide (hepatitis C virus); assay: capture EIA; Ab 1000 ng/mL; bt-peptide 500 ng/mL
[17] = target: 92-133 biotin labeled HCV core peptide (hepatitis C virus) (UniProt Q9WMX2); assay: capture EIA; Ab 2000 ng/mL; bt-peptide 500 ng/mL
[18] = target: C113T109N biotin labeled HCV core peptide (hepatitis C virus); assay: capture EIA; Ab 2000 ng/mL; bt-peptide 500 ng/mL
[19] = target: Mut1T110N biotin labeled HCV core peptide (hepatitis C virus); assay: capture EIA; Ab 2000 ng/mL; bt-peptide 500 ng/mL
[20] = target: Mut6T110S biotin labeled HCV core peptide (hepatitis C virus); assay: capture EIA; Ab 2000 ng/mL; bt-peptide 500 ng/mL
[21] = target: 92-133 biotin labeled HCV core peptide (hepatitis C virus) (UniProt Q9WMX2); assay: capture EIA; Ab 62.5 ng/mL; bt-peptide 500 ng/mL
[22] = target: C113T109N biotin labeled HCV core peptide (hepatitis C virus); assay: capture EIA; Ab 62.5 ng/mL; bt-peptide 500 ng/mL
[23] = target: Mut1T110N biotin labeled HCV core peptide (hepatitis C virus); assay: capture EIA; Ab 62.5 ng/mL; bt-peptide 500 ng/mL
[24] = target: Mut6T110S biotin labeled HCV core peptide (hepatitis C virus); assay: capture EIA; Ab 62.5 ng/mL; bt-peptide 500 ng/mL
[25] = target: 92-133 biotin labeled HCV core peptide (hepatitis C virus) (UniProt Q9WMX2); assay: capture EIA; Ab 0.977 ng/mL; bt-peptide 500 ng/mL
[26] = target: C113T109N biotin labeled HCV core peptide (hepatitis C virus); assay: capture EIA; Ab 0.977 ng/mL; bt-peptide 500 ng/mL
[27] = target: Mut1T110N biotin labeled HCV core peptide (hepatitis C virus); assay: capture EIA; Ab 0.977 ng/mL; bt-peptide 500 ng/mL
[28] = target: Mut6T110S biotin labeled HCV core peptide (hepatitis C virus); assay: capture EIA; Ab 0.977 ng/mL; bt-peptide 500 ng/mL
[29] = target: 92-133 biotin labeled HCV core peptide (hepatitis C virus) (UniProt Q9WMX2); assay: capture EIA; Ab 1.953 ng/mL; bt-peptide 500 ng/mL
[30] = target: C113T109N biotin labeled HCV core peptide (hepatitis C virus); assay: capture EIA; Ab 1.953 ng/mL; bt-peptide 500 ng/mL
[31] = target: Mut1T110N biotin labeled HCV core peptide (hepatitis C virus); assay: capture EIA; Ab 1.953 ng/mL; bt-peptide 500 ng/mL
[32] = target: Mut6T110S biotin labeled HCV core peptide (hepatitis C virus); assay: capture EIA; Ab 1.953 ng/mL; bt-peptide 500 ng/mL
[33] = target: 92-133 biotin labeled HCV core peptide (hepatitis C virus) (UniProt Q9WMX2); assay: capture EIA; Ab 3.906 ng/mL; bt-peptide 500 ng/mL
[34] = target: C113T109N biotin labeled HCV core peptide (hepatitis C virus); assay: capture EIA; Ab 3.906 ng/mL; bt-peptide 500 ng/mL
[35] = target: Mut1T110N biotin labeled HCV core peptide (hepatitis C virus); assay: capture EIA; Ab 3.906 ng/mL; bt-peptide 500 ng/mL
[36] = target: Mut6T110S biotin labeled HCV core peptide (hepatitis C virus); assay: capture EIA; Ab 3.906 ng/mL; bt-peptide 500 ng/mL
[37] = target: 92-133 biotin labeled HCV core peptide (hepatitis C virus) (UniProt Q9WMX2); assay: capture EIA; Ab 31.25 ng/mL; bt-peptide 500 ng/mL
[38] = target: C113T109N biotin labeled HCV core peptide (hepatitis C virus); assay: capture EIA; Ab 31.25 ng/mL; bt-peptide 500 ng/mL
[39] = target: Mut1T110N biotin labeled HCV core peptide (hepatitis C virus); assay: capture EIA; Ab 31.25 ng/mL; bt-peptide 500 ng/mL
[40] = target: Mut6T110S biotin labeled HCV core peptide (hepatitis C virus); assay: capture EIA; Ab 31.25 ng/mL; bt-peptide 500 ng/mL
[41] = target: 92-133 biotin labeled HCV core peptide (hepatitis C virus) (UniProt Q9WMX2); assay: capture EIA; Ab 7.813 ng/mL; bt-peptide 500 ng/mL
[42] = target: C113T109N biotin labeled HCV core peptide (hepatitis C virus); assay: capture EIA; Ab 7.813 ng/mL; bt-peptide 500 ng/mL
[43] = target: Mut1T110N biotin labeled HCV core peptide (hepatitis C virus); assay: capture EIA; Ab 7.813 ng/mL; bt-peptide 500 ng/mL
[44] = target: Mut6T110S biotin labeled HCV core peptide (hepatitis C virus); assay: capture EIA; Ab 7.813 ng/mL; bt-peptide 500 ng/mL
[45] = target: 92-133 biotin labeled HCV core peptide (hepatitis C virus) (UniProt Q9WMX2); assay: capture EIA; Ab 15.625 ng/mL; bt-peptide 500 ng/mL
[46] = target: C113T109N biotin labeled HCV core peptide (hepatitis C virus); assay: capture EIA; Ab 15.625 ng/mL; bt-peptide 500 ng/mL
[47] = target: Mut1T110N biotin labeled HCV core peptide (hepatitis C virus); assay: capture EIA; Ab 15.625 ng/mL; bt-peptide 500 ng/mL
[48] = target: Mut6T110S biotin labeled HCV core peptide (hepatitis C virus); assay: capture EIA; Ab 15.625 ng/mL; bt-peptide 500 ng/mL
[49] = target: 92-133 biotin labeled HCV core peptide (hepatitis C virus) (UniProt Q9WMX2); assay: capture EIA; Ab 15.6 ng/mL; bt-peptide 500 ng/mL (summary of Table 7)
[50] = target: C113T109N biotin labeled HCV core peptide (hepatitis C virus); assay: as above
[51] = target: Mut1T110N biotin labeled HCV core peptide (hepatitis C virus); assay: as above
[52] = target: Mut6T110S biotin labeled HCV core peptide (hepatitis C virus); assay: as above

C11-3 (ABT-4) monoclonal antibody
signal at 492 nm [1]: 1.83 A492 | signal at 492 nm [2]: 0.147 A492 | signal at 492 nm [3]: 0.127 A492 | signal at 492 nm [4]: 2.02 A492 | signal at 492 nm [5]: 1.68 A492 | signal at 492 nm [6]: 0.0963 A492 | signal at 492 nm [7]: 0.0857 A492 | signal at 492 nm [8]: 1.83 A492 | signal at 492 nm [9]: 1.95 A492 | signal at 492 nm [10]: 0.0882 A492 | signal at 492 nm [11]: 0.0765 A492 | signal at 492 nm [12]: 2.24 A492 | signal at 492 nm [13]: 1.87 A492 | signal at 492 nm [14]: 0.0806 A492 | signal at 492 nm [15]: 0.0721 A492 | signal at 492 nm [16]: 2.15 A492 | signal at 492 nm [17]: 1.45 A492 | signal at 492 nm [18]: 0.0707 A492 | signal at 492 nm [19]: 0.0915 A492 | signal at 492 nm [20]: 1.73 A492 | signal at 492 nm [21]: 1.92 A492 | signal at 492 nm [22]: 0.202 A492 | signal at 492 nm [23]: 0.155 A492 | signal at 492 nm [24]: 2.11 A492 | signal at 492 nm [25]: 0.116 A492 | signal at 492 nm [26]: 0.104 A492 | signal at 492 nm [27]: 0.0755 A492 | signal at 492 nm [28]: 0.101 A492 | signal at 492 nm [29]: 0.134 A492 | signal at 492 nm [30]: 0.114 A492 | signal at 492 nm [31]: 0.0854 A492 | signal at 492 nm [32]: 0.0964 A492 | signal at 492 nm [33]: 0.183 A492 | signal at 492 nm [34]: 0.0833 A492 | signal at 492 nm [35]: 0.079 A492 | signal at 492 nm [36]: 0.227 A492 | signal at 492 nm [37]: 1.55 A492 | signal at 492 nm [38]: 0.16 A492 | signal at 492 nm [39]: 0.107 A492 | signal at 492 nm [40]: 1.54 A492 | signal at 492 nm [41]: 0.562 A492 | signal at 492 nm [42]: 0.119 A492 | signal at 492 nm [43]: 0.0966 A492 | signal at 492 nm [44]: 0.344 A492 | signal at 492 nm [45]: 1.01 A492 | signal at 492 nm [46]: 0.116 A492 | signal at 492 nm [47]: 0.11 A492 | signal at 492 nm [48]: 0.807 A492 | signal at 492 nm [49]: 1.01 A492 | signal at 492 nm [50]: 0.116 A492 | signal at 492 nm [51]: 0.11 A492 | signal at 492 nm [52]: 0.807 A492
